Data on two substances can be found in patent US7223734B2, “Plasma protein-binding ligands” (The American National Red Cross, priority 2002, dated 2007).

One test addresses T1, fibrinogen (Homo sapiens, UniProt P02671+P02675+P02679).
T1 construct: from tissue; host or cells: human plasma
T1 sequence (P02671 20-629 limits assumed): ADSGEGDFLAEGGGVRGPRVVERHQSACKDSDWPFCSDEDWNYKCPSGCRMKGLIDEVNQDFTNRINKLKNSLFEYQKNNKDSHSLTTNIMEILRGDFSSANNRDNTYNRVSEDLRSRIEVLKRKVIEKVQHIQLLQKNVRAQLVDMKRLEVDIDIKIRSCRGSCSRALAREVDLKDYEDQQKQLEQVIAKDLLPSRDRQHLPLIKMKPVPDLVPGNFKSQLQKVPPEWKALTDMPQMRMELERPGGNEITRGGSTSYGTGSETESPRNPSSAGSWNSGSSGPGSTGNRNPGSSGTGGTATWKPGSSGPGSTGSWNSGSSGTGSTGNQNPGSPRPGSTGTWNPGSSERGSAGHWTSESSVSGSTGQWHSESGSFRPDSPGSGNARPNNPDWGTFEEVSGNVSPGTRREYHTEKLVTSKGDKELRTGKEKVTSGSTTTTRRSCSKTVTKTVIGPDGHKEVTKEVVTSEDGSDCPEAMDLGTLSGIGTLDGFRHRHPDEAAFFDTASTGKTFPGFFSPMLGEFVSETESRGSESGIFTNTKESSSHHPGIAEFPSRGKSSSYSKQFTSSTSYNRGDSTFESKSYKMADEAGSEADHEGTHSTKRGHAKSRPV
T1 sequence (P02675 31-491): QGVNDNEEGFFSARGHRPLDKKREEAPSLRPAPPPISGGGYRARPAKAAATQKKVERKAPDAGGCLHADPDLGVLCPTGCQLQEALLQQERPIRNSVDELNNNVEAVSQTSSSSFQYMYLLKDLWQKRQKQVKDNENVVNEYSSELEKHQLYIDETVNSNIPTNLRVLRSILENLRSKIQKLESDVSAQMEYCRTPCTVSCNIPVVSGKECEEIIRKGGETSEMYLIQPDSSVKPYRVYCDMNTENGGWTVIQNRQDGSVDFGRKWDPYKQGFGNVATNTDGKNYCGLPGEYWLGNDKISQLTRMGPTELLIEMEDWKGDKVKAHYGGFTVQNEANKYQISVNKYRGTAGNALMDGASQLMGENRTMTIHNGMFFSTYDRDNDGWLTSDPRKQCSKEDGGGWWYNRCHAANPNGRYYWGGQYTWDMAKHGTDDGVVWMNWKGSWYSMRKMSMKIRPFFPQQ
T1 sequence (P02679 27-433 limits assumed): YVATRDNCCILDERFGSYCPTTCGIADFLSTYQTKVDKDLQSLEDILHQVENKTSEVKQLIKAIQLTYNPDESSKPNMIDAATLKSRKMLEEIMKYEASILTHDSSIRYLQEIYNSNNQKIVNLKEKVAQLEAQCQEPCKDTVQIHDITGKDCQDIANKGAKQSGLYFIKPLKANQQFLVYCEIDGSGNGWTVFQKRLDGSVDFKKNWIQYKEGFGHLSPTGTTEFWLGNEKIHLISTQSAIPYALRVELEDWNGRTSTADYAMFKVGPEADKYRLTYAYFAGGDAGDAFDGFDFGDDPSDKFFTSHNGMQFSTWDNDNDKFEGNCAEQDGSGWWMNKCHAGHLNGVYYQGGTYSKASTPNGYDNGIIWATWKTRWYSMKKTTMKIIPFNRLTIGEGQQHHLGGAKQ
In words: Purification of fibrinogen from plasma on HWQ resin column (Example 3). In kind it is binding. The protocol: Five milliliters of plasma was applied at a flow rate of 0.2 ml/min. onto a 0.8 ml column (RT=4.0 min) containing a resin displaying the HWQ ligand, and was equilibrated with 0.14 M NaCl, 0.020M sodium citrate, pH 7.0 (EQ buffer). After washing the resin with EQ buffer and 0.5 M NaCl, pH 7.0, to baseline, the bound fibrinogen was eluted with 2.0 M NaCl, pH 7.0 or 0.3 M glycine, 0.5M NaCl, pH 9.0. All of the wash and elution buffers contained 0.020 M sodium citrate. […] However, dynamic resin capacities of 5–8 mg were reached. The resin was regenerated with 2 M guanidine-HCl, 2% Sarkosyl, 30% ethanol and 70% ethanol/2% acetic acid, followed by storage in 20% methanol.

The test system of test [1] is Apo-A1 lipoprotein. Nature of the test: Preparation of fibrinogen- and Apo-A1-depleted plasma: Apo-A1 in flow-through (Example 5). Type of test: binding, human. As to conditions: nephelometry and SDS-PAGE analysis. The protocol:
(§1) Toyopearl AF Amino 650M resin displaying a peptide consisting essentially of the amino acid sequence D-ARQFDF (SEQ ID NO: 20) was suspended for 2 hours in 20% methanol. After washing with distilled water, the resin was packed into an Omni column (column volume (CV)=10 ml; diameter 1.5 cm; CF 1.77 cm^2) and equilibrated in 0.14 M NaCl, 0.020 M sodium citrate, pH 7.0 (EQ buffer). Fifty milliliters of filtered plasma (0.80 mm, Nalgene CN, Cat. No. 380-0080; 0.45 μm, Corning CA, Cat. No. 431155; 0.20 μm, Nalgene PES, Cat. No. 165-0020) were loaded on the Omni columns at a linear velocity (LV) of 50 cm/H (flow rate (FR)=1.5 ml/min; residence time (RT)=6.7 minutes). The flow-through was collected in column volumes. After pooling fibrinogen-depleted plasma (50 ml), the flow-through was loaded onto a column comprising a resin displaying an Apo-A1 lipoprotein-binding ligand (D-WWLHIN (SEQ ID NO: 33)), as described below. The fibrinogen-binding column was washed with 12 CVs of EQ buffer and the fibrinogen eluted with 10 CVs of 0.3 M glycine, 0.5 M NaCl, pH 9.0. The column was regenerated with 10 CVs of 2% Sarkosyl, pH 8.0, followed by 10 CVs of 2.0 M guanidine (GuHCl). After washing with 5 CVs of distilled water, the column was further cleaned with 6 CVs of 30% ethanol and 6 CVs of 70% ethanol containing 2% acetic acid. […]

For the next test, the target named is T2, API (Homo sapiens, UniProt P01009).
T2 construct: from tissue; host or cells: human plasma (whole, fibrinogen-depleted or F1-Apo-depleted)
In words: Preparation of fibrinogen- and Apo-A1-depleted plasma: API in flow-through (Example 5). Particulars: after chromatography on the named resin. In kind it is binding. The protocol:
as §1

Test [2] deals with paraoxonase. Particulars: without use of detergent.
Text: Paraoxonase, or any plasma protein, can be recovered from the isolated or purified peptide of the invention coupled to a bead (i.e., a support) by several different approaches, including washing beads with buffers with high and low ionic strength, high and low pH, or buffers comprising up to 50% of ethylene glycol and different detergents.
Test [3] concerns the target T3, Apo-A1 lipoprotein (Homo sapiens, UniProt P02647).
T3 construct: from tissue; host or cells: human plasma (whole or fibrinogen-depleted)
In words: Apo-A1 lipoprotein purification from fibrinogen-depleted plasma on peptide resin column (Example 4). Type of test: binding. As for the experimental part:
Apo-A1 lipoprotein purification was accomplished with D-WWLHIN (SEQ ID NO: 33) peptides and several analogs. Indeed, about 100% Apo-A1 lipoprotein depletion from plasma was repeatedly obtained with D-WWLHAN (SEQ ID NO: 56) and D-WWLHIN (SEQ ID NO: […]). Fourteen milliliters of fibrinogen-depleted plasma was loaded onto a 2.3 ml column (CF=0.785 cm^2) at 0.4 ml/min. (LV=30 cm/H; RT=5.8) that had been equilibrated with 0.14 M NaCl, 0.020 M sodium citrate, pH 7.0 (EQ buffer). After the column was washed with EQ buffer to baseline, Apo-A1 lipoprotein was eluted with 2.0 M NaCl, 1% Tween-20, 0.020M sodium citrate, pH 7.0. The column was regenerated with 2.0 M guanidine-HCl, 2% Sarkosyl, and 2% acetic acid and stored in 20% methanol.

In test [4] the test system is paraoxonase. Particulars: after 1 hour incubation with resin at 37° C.; rabbit serum diluted 1/10. As for the experimental part: Paraoxonase binding to a WWLHAN (SEQ ID NO: 56)-displaying resin was evaluated according to the following protocol. Rabbit serum diluted 1/10 times with PBS ([…]) was incubated in a rotating Eppendorf tube with 50 μl of D-WWLHAN (SEQ ID NO: 56)-displaying resin suspension containing approximately […] of resin. The resin was previously soaked in 20% methanol overnight and washed 3 times with PBS to remove the methanol traces and resuspended in paraoxonase assay buffer (20 mM Tris pH 8.0, 150 mM NaCl, and 2 mM CaCl2). After 1 hour incubation at 37° C., resin beads were precipitated by centrifugation at 8000 g for 1 min in an Eppendorf microcentrifuge. Supernatants were transferred into separate Eppendorf tubes and resin bead pellets were resuspended in equal volumes of paraoxonase assay buffer. Paraoxonase activity of resin bead suspensions and supernatant solutions was measured. In particular, 100 μl of paraoxonase assay buffer containing 100 μm of DEPFMU (a fluorogenic substrate for paraoxonase detection) was mixed with […] of supernatant or 10 μl of resin bead suspension, or the original serum solution in a standard microtiter plate well. After thorough mixing, the plate solution was incubated for 20 minutes at 37° C. Hydrolysis of DEPFMU was quantified by measuring the fluorescence level at […] using a commercial fluorometer. The level of fluorescence correlates with the level of 6,8-difluoro-4-methylumbelliferyl released from DEPFMU as a result of paraoxonase-mediated hydrolysis. The actual amount of 6,8-difluoro-4-methylumbelliferyl released in the assay can be calibrated with a known amount of 6,8-difluoro-4-methylumbelliferyl.
Several different D-WWLHIN (SEQ ID NO: 33) analogs were screened for the ability to bind to paraoxonase under the conditions described in Example 7. For this experiment, the following resins were tested: WWLHAN (SEQ ID NO: 56), AWLHIN (SEQ ID NO: 59), WALHIN (SEQ ID NO: 60), WWAHIN (SEQ ID NO: 61), WWLHIA (SEQ ID NO: 63), WYLHIN (SEQ ID NO: 35), WWLFIN (SEQ ID NO: 36), and na1′WLHIN (SEQ ID NO: 40).

Non-standard residues stand in square brackets, D forms with d. No end group written: not given here.

T2 sequence (P01009 25-418): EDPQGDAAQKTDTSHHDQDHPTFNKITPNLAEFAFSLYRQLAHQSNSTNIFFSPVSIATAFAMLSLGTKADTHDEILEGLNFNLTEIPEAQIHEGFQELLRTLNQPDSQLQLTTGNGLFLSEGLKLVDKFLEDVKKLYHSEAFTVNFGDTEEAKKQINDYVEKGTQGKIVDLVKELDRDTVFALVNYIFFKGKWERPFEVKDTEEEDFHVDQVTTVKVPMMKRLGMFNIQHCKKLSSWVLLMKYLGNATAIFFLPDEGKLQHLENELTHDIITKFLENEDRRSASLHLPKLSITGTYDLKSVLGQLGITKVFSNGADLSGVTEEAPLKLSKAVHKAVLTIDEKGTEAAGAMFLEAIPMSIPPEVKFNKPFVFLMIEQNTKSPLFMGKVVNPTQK
T3 sequence (P02647 25-267 limits assumed): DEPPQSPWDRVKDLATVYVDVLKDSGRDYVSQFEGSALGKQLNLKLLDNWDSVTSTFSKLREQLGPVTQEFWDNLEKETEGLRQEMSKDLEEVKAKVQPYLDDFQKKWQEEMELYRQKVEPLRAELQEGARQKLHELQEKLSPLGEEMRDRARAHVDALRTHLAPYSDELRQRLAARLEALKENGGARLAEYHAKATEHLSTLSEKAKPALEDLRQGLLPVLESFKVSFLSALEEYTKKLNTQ

With HWQ, in the test with fibrinogen (2.0 M NaCl, pH 7.0 or 0.3 M glycine, 0.5M NaCl, pH 9.0), the “elution of bound fibrinogen” value is reported as “Complete elution of fibrinogen was not achieved”. This substance also gave a dynamic resin capacities with fibrinogen (5 ml plasma on 0.8 ml column) of 5 to 8 mg.
Take “WWLHAN ([dW]WLHAN; not fully specified (residues 2, 3, 4, 5, 6)) [D-WWLHAN]”: the “Apo-A1 lipoprotein detection after treating with the resin” value in the test on Apo-A1 lipoprotein [1] is “no Apo-A1 lipoprotein could be detected”. The “API recovered in the flow-through” value with API was 90–95%. For the same substance, the “paraoxonase activity eluted from the beads into the supernatant” value with paraoxonase [2] was “No paraoxonase activity was eluted”. Further, the “Apo-A1 lipoprotein depletion from plasma” value with Apo-A1 lipoprotein [3] is listed as “about 100%”. Also, in the test with paraoxonase [4], the “original paraoxonase activity remaining in the serum” value was “less than 4%”.
